Test results as given in article PMC5366329.

Columns and labels:
[1] = molecular target: N-terminal 6xHis-tagged HsCPAP^897−1338 (human) (UniProt Q9HC77); assay: SEC + other: negative-stain electron microscopy (single particle, 3D map); SEC (Superdex 200 10/300) peak fraction at an apparent MW of ~208 kDa, buffer H-300 (300 mM NaCl), 4°C; barrel-like particles, 23 Å map; putative tetramer (dimer of dimers)
[2] = molecular target: N-terminal 6xHis-tagged HsCPAP^897−1338 (human) (UniProt Q9HC77); assay: SEC + other: negative-stain electron microscopy (single particle, 3D map); SEC (Superdex 200 10/300) fraction at an apparent MW of ~108 kDa, buffer H-300 (300 mM NaCl), 4°C; toroidal particles, 20 Å map from 4,587 particles; monomers to putative dimer

- stoichiometry N [1]: 4
- stoichiometry N [2]: 2
Substance: N-terminal 6xHis-tagged HsCPAP^897−1338 (from UniProt Q9HC77 897-1338) (domain or fragment)
